Here are results for one protein from article PMC2172667 (The Journal of Cell Biology, 2003).

For orientation: stoichiometry N means a count of units in the complex or per binding partner.

The series concerns the molecule itself. Put plainly: AUC + SEC.

B1: his-EPLIN-α (natural protein)
chain: MENCLGESRHEVEKSEISENTDASGKIEKYNVPLNRLKMMFEKGEPTQTKILRAQSRSASGRKISENSYSLDDLEIGPGQLSSSTFDSEKNESRRNLELPRLSETSIKDRMAKYQAAVSKQSSSTNYTNELKASGGEIKIHKMEQKENVPPGPEVCITHQEGEKISANENSLAVRSTPAEDDSRDSQVKSEVQQPVHPKPLSPDSRASSLSESSPPKAMKKFQAPARETCVECQKTVYPMERLLANQQVFHISCFRCSYCNNKLSLGTYASLHGRIYCKPHFNQLFKSKGNYDEGFGHRPHKDLWASKNENEEILERPAQLANARETPHSPGVEDAPIAKVGVLAASMEAKASSQQEKEDKPAETKKLRIAWPPPTELGSSGSALEEGIKMSKPKWPPEDEISKPEVPEDVDLDLKKLRRSSSLKERSRPFTVAASFQSTSVKSPKTVSPPIRKGWSMSEQSEESVGGRVAERKQVENAKASKKNGNVGKTTWQNKESKGETGKRSKEGHSLEMENENLVENGADSDEDDNSFLKQQSPQEPKSLNWSSFVDNTFAEEFTTQNQKSQDVELWEGEVVKELSVEEQIKRNRYYDEDEDEE
Consider B1, for which the “stoichiometry N” value is about 8 polypeptides.
